# Data taken from patent US20200079833A1 (AstraZeneca / MedImmune, published 2020).
# Starred links: 1 amine or outer side, 2 acyl side, 3 side chain; linkers in the order of their positions; H or OH if unused. Non-standard residues stand in square brackets, D forms with d. Groups on a side chain read outwards from the residue. Primed or numbered codes have the meaning given here. No end group written: not given here. *: point of attachment. γGlu = O=C(O)[C@H](CCC(=O)[*:2])N[*:1]; Stearoyl = CCCCCCCCCCCCCCCCCC(=O)*; αMeF = C[C@](N)(Cc1ccccc1)C(=O)O; αMeK = C[C@](N)(CCCCN)C(=O)O; αMeS = C[C@](N)(CO)C(=O)O; PEG2′ = not defined here; Aib = CC(C)(N)C(=O)O
# T1: glucose-dependent insulinotropic peptide (gastric inhibitory polypeptide) receptor (human, UniProt P48546 22-466)
# T1 sequence (looked up): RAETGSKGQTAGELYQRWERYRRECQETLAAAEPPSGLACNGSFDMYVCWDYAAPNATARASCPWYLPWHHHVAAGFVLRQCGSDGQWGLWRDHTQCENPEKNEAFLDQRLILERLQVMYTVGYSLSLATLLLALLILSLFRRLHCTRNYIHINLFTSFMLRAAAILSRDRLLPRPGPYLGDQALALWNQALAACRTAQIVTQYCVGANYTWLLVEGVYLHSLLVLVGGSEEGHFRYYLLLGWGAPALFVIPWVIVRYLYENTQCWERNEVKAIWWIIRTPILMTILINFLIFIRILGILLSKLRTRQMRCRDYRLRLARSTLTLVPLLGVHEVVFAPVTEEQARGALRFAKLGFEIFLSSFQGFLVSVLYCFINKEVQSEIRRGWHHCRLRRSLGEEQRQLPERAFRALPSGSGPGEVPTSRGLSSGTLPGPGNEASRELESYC
# B1: SEQ ID NO 48 (peptide)
# peptide: H[Aib]EGS[αMeF]TSDV[αMeS]S[αMeF]LEGEAAK([PEG2′-PEG2′-γGlu-Stearoyl])EFIA[αMeF]VV[αMeK]GG-NH2
# B2: SEQ ID NO 44 (peptide)
# peptide: H[Aib]EGS[αMeF]TSDV[αMeS]S[αMeF]LEGEAAEE[αMeF]IA[αMeF]VVEGG-NH2
# modifications: N-terminus assumed
# SMILES: CC[C@H](C)[C@H](NC(=O)[C@](C)(Cc1ccccc1)NC(=O)[C@H](CCC(=O)O)NC(=O)[C@H](CCC(=O)O)NC(=O)[C@H](C)NC(=O)[C@H](C)NC(=O)[C@H](CCC(=O)O)NC(=O)CNC(=O)[C@H](CCC(=O)O)NC(=O)[C@H](CC(C)C)NC(=O)[C@](C)(Cc1ccccc1)NC(=O)[C@H](CO)NC(=O)[C@](C)(CO)NC(=O)[C@@H](NC(=O)[C@H](CC(=O)O)NC(=O)[C@H](CO)NC(=O)[C@@H](NC(=O)[C@](C)(Cc1ccccc1)NC(=O)[C@H](CO)NC(=O)CNC(=O)[C@H](CCC(=O)O)NC(=O)C(C)(C)NC(=O)[C@@H](N)Cc1c[nH]cn1)[C@@H](C)O)C(C)C)C(=O)N[C@@H](C)C(=O)N[C@@](C)(Cc1ccccc1)C(=O)N[C@H](C(=O)N[C@H](C(=O)N[C@@H](CCC(=O)O)C(=O)NCC(=O)NCC(N)=O)C(C)C)C(C)C
# B3: SEQ ID NO 42 (peptide)
# peptide: H[Aib]EGS[αMeF]TSDV[αMeS]S[αMeF]LEGEAAEE[αMeF]IA[αMeF]VV[αMeK]GG-NH2
# modifications: N-terminus assumed
# SMILES: CC[C@H](C)[C@H](NC(=O)[C@](C)(Cc1ccccc1)NC(=O)[C@H](CCC(=O)O)NC(=O)[C@H](CCC(=O)O)NC(=O)[C@H](C)NC(=O)[C@H](C)NC(=O)[C@H](CCC(=O)O)NC(=O)CNC(=O)[C@H](CCC(=O)O)NC(=O)[C@H](CC(C)C)NC(=O)[C@](C)(Cc1ccccc1)NC(=O)[C@H](CO)NC(=O)[C@](C)(CO)NC(=O)[C@@H](NC(=O)[C@H](CC(=O)O)NC(=O)[C@H](CO)NC(=O)[C@@H](NC(=O)[C@](C)(Cc1ccccc1)NC(=O)[C@H](CO)NC(=O)CNC(=O)[C@H](CCC(=O)O)NC(=O)C(C)(C)NC(=O)[C@@H](N)Cc1c[nH]cn1)[C@@H](C)O)C(C)C)C(=O)N[C@@H](C)C(=O)N[C@@](C)(Cc1ccccc1)C(=O)N[C@H](C(=O)N[C@H](C(=O)N[C@@](C)(CCCCN)C(=O)NCC(=O)NCC(N)=O)C(C)C)C(C)C
# B4: SEQ ID NO 7 (peptide)
# peptide: H[Aib]EGS[αMeF]TSEVSS[αMeF]LEGEAA[αMeK]E[αMeF]IA[αMeF]VV[αMeK]GG-NH2
# modifications: N-terminus assumed
# SMILES: CC[C@H](C)[C@H](NC(=O)[C@](C)(Cc1ccccc1)NC(=O)[C@H](CCC(=O)O)NC(=O)[C@](C)(CCCCN)NC(=O)[C@H](C)NC(=O)[C@H](C)NC(=O)[C@H](CCC(=O)O)NC(=O)CNC(=O)[C@H](CCC(=O)O)NC(=O)[C@H](CC(C)C)NC(=O)[C@](C)(Cc1ccccc1)NC(=O)[C@H](CO)NC(=O)[C@H](CO)NC(=O)[C@@H](NC(=O)[C@H](CCC(=O)O)NC(=O)[C@H](CO)NC(=O)[C@@H](NC(=O)[C@](C)(Cc1ccccc1)NC(=O)[C@H](CO)NC(=O)CNC(=O)[C@H](CCC(=O)O)NC(=O)C(C)(C)NC(=O)[C@@H](N)Cc1c[nH]cn1)[C@@H](C)O)C(C)C)C(=O)N[C@@H](C)C(=O)N[C@@](C)(Cc1ccccc1)C(=O)N[C@H](C(=O)N[C@H](C(=O)N[C@@](C)(CCCCN)C(=O)NCC(=O)NCC(N)=O)C(C)C)C(C)C
# B5: SEQ ID NO 47 (peptide)
# peptide: H[Aib]EGS[αMeF]TSDV[αMeS]SYLEGEAAK([PEG2′-PEG2′-γGlu-Stearoyl])E[αMeF]IA[αMeF]VV[αMeK]GG-NH2
# B6: SEQ ID NO 45 (peptide)
# peptide: H[Aib]EGSFTSDV[αMeS]S[αMeF]LEGEAAK([PEG2′-PEG2′-γGlu-Stearoyl])E[αMeF]IA[αMeF]VV[αMeK]GG-NH2
# B7: SEQ ID NO 43 (peptide)
# peptide: H[Aib]EGS[αMeF]TSDV[αMeS]S[αMeF]LEGEAA[αMeK]E[αMeF]IA[αMeF]VVEGG-NH2
# modifications: N-terminus assumed
# SMILES: CC[C@H](C)[C@H](NC(=O)[C@](C)(Cc1ccccc1)NC(=O)[C@H](CCC(=O)O)NC(=O)[C@](C)(CCCCN)NC(=O)[C@H](C)NC(=O)[C@H](C)NC(=O)[C@H](CCC(=O)O)NC(=O)CNC(=O)[C@H](CCC(=O)O)NC(=O)[C@H](CC(C)C)NC(=O)[C@](C)(Cc1ccccc1)NC(=O)[C@H](CO)NC(=O)[C@](C)(CO)NC(=O)[C@@H](NC(=O)[C@H](CC(=O)O)NC(=O)[C@H](CO)NC(=O)[C@@H](NC(=O)[C@](C)(Cc1ccccc1)NC(=O)[C@H](CO)NC(=O)CNC(=O)[C@H](CCC(=O)O)NC(=O)C(C)(C)NC(=O)[C@@H](N)Cc1c[nH]cn1)[C@@H](C)O)C(C)C)C(=O)N[C@@H](C)C(=O)N[C@@](C)(Cc1ccccc1)C(=O)N[C@H](C(=O)N[C@H](C(=O)N[C@@H](CCC(=O)O)C(=O)NCC(=O)NCC(N)=O)C(C)C)C(C)C
# B8: SEQ ID NO 46 (peptide)
# peptide: H[Aib]EGS[αMeF]TSDVSS[αMeF]LEGEAAK([PEG2′-PEG2′-γGlu-Stearoyl])E[αMeF]IA[αMeF]VV[αMeK]GG-NH2
# Target: GLP-1 receptor (human, UniProt P43220 24-463)
# Test: cell-based or functional assay
"Primary assay EC50 (cAMP), Mean pM GLP-1R [pM]","Primary assay EC50 (cAMP), n1 [nM]","Primary assay EC50 (cAMP), n2 [nM]",Binder
6.1,0.0039,0.0082,B1
6.7,0.0065,0.0069,B2
8.7,0.0069,0.011,B3
389,0.35,0.43,B4
43.3,0.037,0.05,B5
3560,3.8,3.3,B6
0.6,0.00045,0.00071,B7
1560,0.92,2.2,B8

# Target: T1, glucose-dependent insulinotropic …
# Test: cell-based or functional assay
"Primary assay EC50 (cAMP), n1 [nM]","Primary assay EC50 (cAMP), n2 [nM]",Binder
26,26,B1
31,31,B2
31,31,B3
100,100,B4
25,25,B5
26,26,B6
31,31,B7
26,26,B8

# Target: glucagon receptor (human, UniProt P47871 26-477)
# Sequence (P47871 26-477): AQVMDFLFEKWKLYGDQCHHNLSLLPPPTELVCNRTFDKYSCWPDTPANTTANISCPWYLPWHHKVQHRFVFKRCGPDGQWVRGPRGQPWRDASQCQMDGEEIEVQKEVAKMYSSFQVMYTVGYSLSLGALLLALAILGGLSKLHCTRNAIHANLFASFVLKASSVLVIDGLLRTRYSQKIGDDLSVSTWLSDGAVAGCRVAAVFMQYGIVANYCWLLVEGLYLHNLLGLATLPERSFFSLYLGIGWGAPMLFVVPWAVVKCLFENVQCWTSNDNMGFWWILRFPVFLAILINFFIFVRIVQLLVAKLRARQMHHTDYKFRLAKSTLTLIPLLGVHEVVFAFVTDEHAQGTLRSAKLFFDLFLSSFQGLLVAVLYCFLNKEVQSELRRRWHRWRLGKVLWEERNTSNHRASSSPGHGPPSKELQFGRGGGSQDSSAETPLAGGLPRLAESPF
# Test: cell-based or functional assay
"Primary assay EC50 (cAMP), n1 [nM]","Primary assay EC50 (cAMP), n2 [nM]",Binder
26,26,B1
31,31,B2
31,31,B3
100,100,B4
25,25,B5
26,26,B6
31,31,B7
26,26,B8
